These results are taken from paper PMC12395305 (2025).

For test [1], the target named is T1, beta-2 microglobulin (UniProt P61769 21-119). The test can be described thus: BLI.
The target in test [2] is T1, beta-2 microglobulin. The test can be described thus: BLI. The source holds these as a separate data set. For orientation: BLI is a label-free optical method that tracks binding on a fibre tip over time.
Test [3] deals with GFP-K41R. Nature of the test: SPR.
In test [4] the target is GFP-K131S. The test can be described thus: SPR. On the technique in general: Surface plasmon resonance follows binding to a sensor surface in real time, without labels.
The target of test [5] is GFP-K166R. The test can be described thus: SPR.
Test [6] addresses GFP-K140R. Nature of the test: SPR.
Test [7] deals with GFP-K162R. Nature of the test: SPR.
The target in test [8] is T2, green fluorescent protein (UniProt P42212 2-238 = GFP). The test can be described thus: SPR.
The target of test [9] is T2, green fluorescent protein. The test can be described thus: SPR. This is another data set of the same source.

T1 sequence (P61769 21-119): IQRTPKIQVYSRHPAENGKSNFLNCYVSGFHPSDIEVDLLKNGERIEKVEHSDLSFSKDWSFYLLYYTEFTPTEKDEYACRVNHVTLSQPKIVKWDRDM

B1: nanobody 24 (VHH)
VHH: QVQLQESGGGSVQAGGSLRLSCAASGYTDSRYCMAWFRQAPGKEREWVARINSGRDITYYADSVKGRFTFSQDNAKNTVYLQMDSLEPEDTATYYCATDIPLRCRDIVAKGGDGFRYWGQGTQVTVSS
With B1, the Kd in [1] was determined as 105 nM. In addition, the koff in test [2] was found to be 0.018 s⁻¹.

B2: αGFP-S54C (VHH)
VHH: QVQLVESGGALVQPGGSLRLSCAASGFPVNRYSMRWYRQAPGKEREWVAGMSCAGDRSSYEDSVKGRFTISRDDARNTVYLQMNSLKPEDTAVYYCNVNVGFEYWGQGTQVTVSS
As for B2, the Kd in [3] is 1.16 nM; in test [4], 1.16 nM; in test [5] it was 1.11 nM; in test [6], 1.05 nM; in test [7] it was 1.26 nM; in test [8] it was 1.11 nM. Also, the koff in test [3] was determined as 0.000174 s⁻¹; in test [4], 0.000168 s⁻¹; in test [5], 0.000175 s⁻¹; in test [6], 0.000169 s⁻¹; in [7], 0.000171 s⁻¹; in test [9], 0.000188 s⁻¹.

What is called Kd is the equilibrium constant for the complex coming apart. Low values mean higher affinity, high ones lower affinity. Broadly, the koff is a measure of how fast the partners let go of each other. Lower therefore signals a long-lived complex.
